{"source": "paper PMC10148159", "about": "“Visualizing the coordination of apurinic/apyrimidinic endonuclease (APE1) and DNA polymerase β during base excision repair”", "binders": {"B1": {"name": "1-nt gap 25-mer (dsDNA)", "DNA 1": "TGTGTGGAATACAGTGAGCGCAACG", "DNA 2": "CGTTGCGCTCA", "DNA 3": "TGTATTCCACACA", "modifications": "5'-phosphate on 13-mer"}, "B2": {"name": "3' nick 25-mer (dsDNA)", "DNA 1": "TGTGTGGAATACAGTGAGCGCAACG", "DNA 2": "CGTTGCGCTCAC", "DNA 3": "TGTATTCCACACA", "modifications": "5'-phosphate on 13-mer; 3'-OH on 12-mer"}, "B3": {"name": "undamaged DNA 25-mer (dsDNA)", "DNA 1": "TGTGTGGAATACAGTGAGCGCAACG", "DNA 2": "CGTTGCGCTCACTGTATTCCACACA"}}, "key": {"[1]": {"biological_target": "T1, DNA polymerase beta (Pol β) (Homo sapiens, UniProt P06746 1-335)", "experiment": "single-molecule TIRF; 2.5 mM EDTA; mean lifetime T2 19.8 s; 50 mM Hepes pH 7.4, 150 mM NaCl, 0.1 mg/ml BSA, 0.8% glucose, 2.5 mM EDTA, ~10 mM Trolox, catalase 0.04 mg/ml, glucose oxidase 1 mg/ml; room temperature; protei"}, "[2]": {"biological_target": "T2, APE1 (Homo sapiens, UniProt P27695 1-318)", "experiment": "single-molecule TIRF; 2.5 mM EDTA; mean lifetimes T2 4.3 s, T3 30.9 s; 50 mM Hepes pH 7.4, 150 mM NaCl, 0.1 mg/ml BSA, 0.8% glucose, 2.5 mM EDTA, ~10 mM Trolox, catalase 0.04 mg/ml, glucose oxidase 1 mg/ml; room temperature; protein 0.1 nM (binary) or 1.5 nM each (ternary)", "details": "protein: recombinant; tags: Cy3 NHS ester dye (about 2.1-2.4 labels per protein); label: 5'-biotin on strand 1 (immobilized); blunt outer ends; 1-nt gap opposite G of template"}, "[3]": {"biological_target": "T1, DNA polymerase beta (Pol β)", "experiment": "single-molecule TIRF; 2.5 mM EDTA; mean lifetimes T2 7.4 s, T3 33.7 s; 50 mM Hepes pH 7.4, 150 mM NaCl, 0.1 mg/ml BSA, 0.8% glucose, 2.5 mM EDTA, ~10 mM Trolox, catalase 0.04 mg/ml, glucose oxidase 1 mg/ml; room temperature; protei"}, "[4]": {"biological_target": "T2, APE1", "experiment": "single-molecule TIRF; 2.5 mM EDTA; mean lifetime T2 12.4 s; 50 mM Hepes pH 7.4, 150 mM NaCl, 0.1 mg/ml BSA, 0.8% glucose, 2.5 mM EDTA, ~10 mM Trolox, catalase 0.04 mg/ml, glucose oxidase 1 mg/ml; room temperature; protein 0.1 nM (binary) or 1.5 nM each (ternary)", "details": "protein: recombinant; tags: Cy3 NHS ester dye (about 2.1-2.4 labels per protein); label: 5'-biotin on strand 1 (immobilized); blunt outer ends; nicked"}, "[5]": {"biological_target": "T2, APE1", "experiment": "single-molecule TIRF; 2.5 mM EDTA; mean lifetime T2 22.8 s; 50 mM Hepes pH 7.4, 150 mM NaCl, 0.1 mg/ml BSA, 0.8% glucose, 2.5 mM EDTA, ~10 mM Trolox, catalase 0.04 mg/ml, glucose oxidase 1 mg/ml; room temperature; protein 0.1 nM (binary) or 1.5 nM each (ternary)", "details": "protein: recombinant; tags: Cy3 NHS ester dye (about 2.1-2.4 labels per protein); label: 5'-biotin on strand 1 (immobilized); blunt"}}}
{"binder": "B1", "values": [{"measurement": "binding result", "setting": "[1]", "value": "binds"}, {"measurement": "binding result", "setting": "[2]", "value": "binds"}]}
{"binder": "B2", "values": [{"measurement": "binding result", "setting": "[3]", "value": "binds"}, {"measurement": "binding result", "setting": "[4]", "value": "binds"}]}
{"binder": "B3", "values": [{"measurement": "binding result", "setting": "[5]", "value": "binds"}]}
